Measured values from PMC9108885 (The Journal of Biological Chemistry, 2022).

Target: human α-synuclein (human, UniProt P37840 1-140, biotin (for BLI, sites not stated); 15N-labelled (for NMR))
Assay: BLI

Kd: 1900 ± 30 nM
B1: mouse nicotinamide mononucleotide adenylyltransferase 3 (enzyme)
chain: MKNRIPVVLLACGSFNPITNMHLRLFEVARDHLHQTGRYQVIEGIISPVNDSYGKKDLVASHHRVAMARLALQTSDWIRVDPWESEQAQWMETVKVLRHHHRELLRSSAQMDGPDPSKTPSASAALPELKLLCGADVLKTFQTPNLWKDTHIQEIVEKFGLVCVSRSGHDPERYISDSPILQQFQHNIHLAREPVLNEISATYVRKALGQGQSVKYLLPEAVITYIRDQGLYINDGSWKGKGKTG
